Consider three molecules from patent US20200392227A1 (LYVGEN BIOPHARMA, published 2020).

The term Kd denotes the equilibrium constant for the complex coming apart. Read a low Kd as higher affinity. What is called koff is the rate constant with which the complex falls apart. In general, kon refers to the rate constant with which the complex forms. The low end stands for slow association, the high end for fast association.

Where two headings read alike, the source gives them in different places.

Test [1] has as its target T1, human FcγRIIC expressed on CHO cells (human, UniProt P31995 43-323).
T1 construct: whole, on cells
T1 sequence (looked up): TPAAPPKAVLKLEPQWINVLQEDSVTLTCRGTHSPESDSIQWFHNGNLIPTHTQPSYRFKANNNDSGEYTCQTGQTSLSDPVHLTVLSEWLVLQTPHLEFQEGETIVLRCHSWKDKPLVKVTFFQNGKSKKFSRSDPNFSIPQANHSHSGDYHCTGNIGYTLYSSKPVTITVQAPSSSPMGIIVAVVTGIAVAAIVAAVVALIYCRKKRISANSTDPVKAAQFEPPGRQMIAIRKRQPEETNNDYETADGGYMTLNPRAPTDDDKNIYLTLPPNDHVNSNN
Put plainly: FACS, CHO cells expressing FcγRIIC. The method, then:
FIGS. 1A-1W are charts showing binding activity of various IgG variants as indicated to different types of Fcγ receptors expressed on CHO-K1 cells at the various concentrations as indicated. The concentrations of each IgG variant, from left to right, are 0 μg/ml, 0.3 μg/ml, 1 μg/ml, 3 μg/ml, and 10 μg/ml in FIGS. 1A-1C, 1E-J, 1L-1M, 1P-1R, and 1T-1V. For FIGS. 1D, 1K, 10, 1S, and 1w the bars, from left to right, correspond to the following concentrations of IgG variant: 0.3 μg/ml, 1 μg/ml, 3 μg/ml, and 10 μg/ml.
(§1) For FACS analysis of the IgG mutants' binding to different FcγRs, FcγR overexpressing CHO cells were harvested using trypsin-EDTA and were suspended in cold staining buffer (3% BSA in PBS). Test IgG mutants, which were diluted in staining buffer, were added into the cells. The mixture was incubated 4° C. for 2 hours, and then washed twice with cold staining buffer and re-suspended in PE-labeled anti-human IgG followed by incubation at 4° C. for 2 hours. The mixture was washed twice with staining buffer and re-suspended in 2% PFA in PBS for FACS.

In test [2] the target is T2, human FcRI protein (MednaBio, E1031) (human, UniProt P12314 16-288, limits assumed).
T2 construct: Bought; loaded on anti-penta-HIS biosensors; also called FcγRI
Put plainly: BLI. The method, then: (§2) These IgG mutants were tested for binding to a panel of human Fc receptors (FcRs), including FcRn, using the Octet Red96 System (ForteBio, Model #Red96). Human FcR proteins were purchased commercially (FcRn, MednaBio, E1032; FcRI, MednaBio, E1031; FcRIIA, MednaBio, E1033; FcRIIB/C, MednaBio, E1034; FcRIIIA-F158, MednaBio, E1036; FcRIIIA-V158, MednaBio, E1035; FcRIIIB, MednaBio, E1037). All Fey receptor assays were performed at pH 7.2; all FcRn assays were performed at pH 6. The Fey receptors were loaded onto anti-penta-HIS1K (ForteBio, Cat #18-5122) biosensors at a concentration of 20 μg/mL. The loaded biosensors was then be dipped into an 8-point 1:3 dilution series of the test IgG molecules (including controls and the mutants described herein) in PBS with 0.1% BSA, 0.02% Tween-20 (pH 7.2) at a starting concentration of 300 nM. Kinetic analysis was performed using a 1:1 binding model and global fitting.
For orientation: In BLI a coated tip is dipped into the sample, and binding shifts an interference pattern.

Test [3] addresses T3, human FcRIIIB protein (MednaBio, E1037) (human, UniProt O75015 17-200).
T3 construct: Bought; also called FcγRIIIB; FcgRIIIB
In words: BLI. The method, then: as §2

In test [4] the target is T4, human FcRIIIA-V158 protein (MednaBio, E1035) (human, UniProt P08637 17-208).
T4 construct: Bought; also called FcγRIIIA(V); FcgRIIIA(V)
Put plainly: BLI. The method, then:
as §2

Test [5] addresses T5, human FcRIIA protein (MednaBio, E1033) (human, UniProt P12318 34-218, limits assumed).
T5 construct: Bought; also called FcγRIIA
T5 sequence (looked up): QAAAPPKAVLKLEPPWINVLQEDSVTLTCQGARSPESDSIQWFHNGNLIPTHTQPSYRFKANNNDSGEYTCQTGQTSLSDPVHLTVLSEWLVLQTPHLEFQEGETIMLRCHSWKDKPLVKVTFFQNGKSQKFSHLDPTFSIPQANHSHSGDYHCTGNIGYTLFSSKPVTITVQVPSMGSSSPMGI
In words: BLI. The method, then: as §2

Test [6] deals with T6, human FcRn protein (MednaBio, E1032) (human, UniProt P55899 24-297; P61769 21-119).
T6 construct: Bought; assays at pH 6
In words: BLI. The procedure:
as §2

Test [7] deals with T7, human FcRIIB/C protein (MednaBio, E1034) (human, UniProt P31994 43-217, limits assumed).
T7 construct: Bought as FcRIIB/C; also called FcγRIIB; CD32B
T7 sequence (looked up): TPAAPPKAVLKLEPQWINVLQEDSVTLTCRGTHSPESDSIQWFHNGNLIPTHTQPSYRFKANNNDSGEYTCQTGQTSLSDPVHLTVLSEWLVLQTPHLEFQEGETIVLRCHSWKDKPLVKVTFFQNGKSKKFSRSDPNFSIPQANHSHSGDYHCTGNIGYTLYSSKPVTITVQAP
In words: BLI. The method, then: as §2

Test [8] addresses T8, human FcRIIIA-F158 protein (MednaBio, E1036) (human, UniProt P08637 17-208).
T8 construct: Bought; also called FcγRIIIA(F)
In words: BLI. The method, then: as §2

The target in test [9] is T9, human FcγRI expressed on CHO cells (human, UniProt P12314 16-374).
T9 construct: whole, on cells
Put plainly: FACS, CHO cells expressing FcγRI. The procedure:
as §1
For orientation: Flow cytometry measures light scatter and fluorescence of single cells or particles in a stream.

For test [10], the target named is T6, human FcRn protein (MednaBio, E1032). In words: BLI. The method, boiled down: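 On an Octet Red96 System, anti-penta-HIS biosensors loaded with commercial human Fc receptor proteins were dipped into test IgG diluted 1:3 over 8 points from 300 nM. Fcγ receptor runs used pH 7.2 and FcRn runs used pH 6. Global fitting of these biolayer interferometry data gave the values for Kd, kon and koff, using a 1:1 binding model.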
This is another data set of the same source.

T8 sequence (P08637 17-208 limits assumed): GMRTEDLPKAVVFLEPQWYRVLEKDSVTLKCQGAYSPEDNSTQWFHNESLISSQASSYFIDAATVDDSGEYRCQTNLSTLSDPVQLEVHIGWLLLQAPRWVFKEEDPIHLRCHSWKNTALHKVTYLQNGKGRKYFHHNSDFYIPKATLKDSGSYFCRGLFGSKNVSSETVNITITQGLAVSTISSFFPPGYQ
T6 sequence (P55899 24-297 limits assumed, form in doubt, chain 1 of 2): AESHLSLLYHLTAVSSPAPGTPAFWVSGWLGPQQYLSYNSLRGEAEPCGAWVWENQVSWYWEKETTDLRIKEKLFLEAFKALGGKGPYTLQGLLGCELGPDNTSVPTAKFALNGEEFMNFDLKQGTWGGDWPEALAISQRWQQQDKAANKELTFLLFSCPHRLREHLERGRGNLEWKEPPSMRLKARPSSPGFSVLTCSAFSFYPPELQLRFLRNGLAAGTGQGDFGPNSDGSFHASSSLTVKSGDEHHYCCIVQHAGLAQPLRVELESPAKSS
T6 sequence (P61769 21-119 limits assumed, form in doubt, chain 2 of 2): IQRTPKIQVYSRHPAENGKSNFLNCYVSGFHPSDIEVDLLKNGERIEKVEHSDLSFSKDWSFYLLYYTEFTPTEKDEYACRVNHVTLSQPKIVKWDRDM
T2 sequence (P12314 16-288 limits assumed): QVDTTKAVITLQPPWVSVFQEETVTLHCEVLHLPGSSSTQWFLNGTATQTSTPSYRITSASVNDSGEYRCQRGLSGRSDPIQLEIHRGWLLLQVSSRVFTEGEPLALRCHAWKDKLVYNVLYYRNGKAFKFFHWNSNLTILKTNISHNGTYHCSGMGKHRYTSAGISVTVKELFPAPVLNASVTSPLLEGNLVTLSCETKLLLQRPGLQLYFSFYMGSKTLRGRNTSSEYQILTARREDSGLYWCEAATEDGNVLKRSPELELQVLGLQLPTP
T4 sequence (P08637 17-208 F176V): as the sequence (P08637 17-208 limits assumed) above, with F160V counted along it
T3 sequence (O75015 17-200 limits assumed): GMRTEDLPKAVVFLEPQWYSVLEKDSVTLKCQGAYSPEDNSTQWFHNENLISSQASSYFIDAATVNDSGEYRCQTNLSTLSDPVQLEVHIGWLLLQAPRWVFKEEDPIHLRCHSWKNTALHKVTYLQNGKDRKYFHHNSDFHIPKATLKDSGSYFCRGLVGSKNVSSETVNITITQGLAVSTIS
T9 sequence (P12314 16-374): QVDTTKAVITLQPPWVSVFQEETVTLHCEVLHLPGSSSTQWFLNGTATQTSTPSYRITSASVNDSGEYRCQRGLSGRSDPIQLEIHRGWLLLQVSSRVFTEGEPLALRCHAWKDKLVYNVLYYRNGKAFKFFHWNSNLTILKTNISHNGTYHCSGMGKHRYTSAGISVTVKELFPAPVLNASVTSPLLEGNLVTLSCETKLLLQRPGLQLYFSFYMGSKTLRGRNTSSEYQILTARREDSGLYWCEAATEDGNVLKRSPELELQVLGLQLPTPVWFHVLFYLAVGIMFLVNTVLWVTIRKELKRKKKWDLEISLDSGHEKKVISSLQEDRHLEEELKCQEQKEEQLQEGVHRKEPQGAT

B1: anti-CD137 IgG1 with Fc variant G1m1 (antibody)
heavy: EVQLVQSGAEVKKPGESLRISCKGSGYSFSTYWISWVRQMPGKGLEWMGKIYPGDSYTNYSPSFQGQVTISADKSISTAYLQWSSLKASDTAMYYCARGYGIFDYWGQGTLVTVSSASTKGPSVFPLAPSSKSTSGGTAALGCLVKDYFPEPVTVSWNSGALTSGVHTFPAVLQSSGLYSLSSVVTVPSSSLGTQTYICNVNHKPSNTKVDKKVEPKSCDKTHTCPPCPAPELLSVFLFPPKPKDTLMISRTPEVTCVVVDVSHEDPEVKFNWYVDGVEVHNAKTKPREEQYNSTYRVVSVLTVLHQDWLNGKEYKCKVSNKALPAPIEKTISKAKGQPREPQVYTLPPSREEMTKNQVSLTCLVKGFYPSDIAVEWESNGQPENNYKTTPPVLDSDGSFFLYSKLTVDKSRWQQGNVFSCSVMHEALHNHYTQKSLSLSPGK
light: SYELTQPPSVSVSPGQTASITCSGDNIGDQYAHWYQQKPGQSPVLVIYQDKNRPSGIPERFSGSNSGNTATLTISGTQAMDEADYYCATYTGFGSLAVFGGGTKLTVLGQPKAAPSVTLFPPSSEELQANKATLVCLISDFYPGAVTVAWKADSSPVKAGVETTTPSKQSNNKYAASSYLSLTPEQWKSHRSYSCQVTHEGSTVEKTVAPTECS
notes: copies: 2 + 2
In the case of B1, the binding result is recorded as “no binding (tested: 10 ug/ml)” in test [1], “no binding (tested: 300 nM)” in [3], “no binding (tested: 300 nM)” in test [4] and “no binding (tested: 300 nM)” in [7]. Also, the Kd in test [2] is 200 nM; in test [5], 440 nM; in test [6], 11 nM; in test [8], 300 nM. In addition, the koff in test [2] came out at 0.13 s⁻¹; in [5], 0.11 s⁻¹; in test [6] it was 0.0078 s⁻¹; in [8] it was 0.1 s⁻¹. Also, the kon in test [2] is 650000 M⁻¹ s⁻¹; in test [5], 250000 M⁻¹ s⁻¹; in test [6], 700000 M⁻¹ s⁻¹; in [8] it was 350000 M⁻¹ s⁻¹.

B2: anti-CD137 IgG4 with Fc variant G4m18 (antibody)
heavy: EVQLVQSGAEVKKPGESLRISCKGSGYSFSTYWISWVRQMPGKGLEWMGKIYPGDSYTNYSPSFQGQVTISADKSISTAYLQWSSLKASDTAMYYCARGYGIFDYWGQGTLVTVSSASTKGPSVFPLAPCSRSTSESTAALGCLVKDYFPEPVTVSWNSGALTSGVHTFPAVLQSSGLYSLSSVVTVPSSSLGTKTYTCNVDHKPSNTKVDKRVESKYGPPCPPCPAPEFLSVFLFPPKPKDTLMISRTPEVTCVVVDVSQEDPEVQFNWYVDGVEVHNAKTKPREEQFNSTYRVVSVLTVLHQDWLNGKEYKCKVSNKGFPSSIEKTISKAKGQPREPQVYTLPPSQEEMTKNQVSLTCLVKGFYPSDIAVEWESNGQPENNYKTTPPVLDSDGSFFLYSRLTVDKSRWQEGNVFSCSVMHEALHNHYTQKSLSLSLGK
light: SYELTQPPSVSVSPGQTASITCSGDNIGDQYAHWYQQKPGQSPVLVIYQDKNRPSGIPERFSGSNSGNTATLTISGTQAMDEADYYCATYTGFGSLAVFGGGTKLTVLGQPKAAPSVTLFPPSSEELQANKATLVCLISDFYPGAVTVAWKADSSPVKAGVETTTPSKQSNNKYAASSYLSLTPEQWKSHRSYSCQVTHEGSTVEKTVAPTECS
notes: copies: 2 + 2
Consider B2, for which, in test [9], the binding result is recorded as “binds”. In test [10], this molecule yielded a Kd of 11 nM, a koff of 0.0068 s⁻¹ and a kon of 610000 M⁻¹ s⁻¹.

B3: anti-CD137 IgG2 with Fc variant G2m2 (antibody)
heavy: EVQLVQSGAEVKKPGESLRISCKGSGYSFSTYWISWVRQMPGKGLEWMGKIYPGDSYTNYSPSFQGQVTISADKSISTAYLQWSSLKASDTAMYYCARGYGIFDYWGQGTLVTVSSASTKGPSVFPLAPCSRSTSESTAALGCLVKDYFPEPVTVSWNSGALTSGVHTFPAVLQSSGLYSLSSVVTVPSSNFGTQTYTCNVDHKPSNTKVDKTVERKCCVECPPCPAPPFLGGPSVFLFPPKPKDTLMISRTPEVTCVVVDVSHEDPEVQFNWYVDGVEVHNAKTKPREEQFNSTFRVVSVLTVVHQDWLNGKEYKCKVSNKGLPAPIEKTISKTKGQPREPQVYTLPPSREEMTKNQVSLTCLVKGFYPSDIAVEWESNGQPENNYKTTPPMLDSDGSFFLYSKLTVDKSRWQQGNVFSCSVMHEALHNHYTQKSLSLSPGK
light: SYELTQPPSVSVSPGQTASITCSGDNIGDQYAHWYQQKPGQSPVLVIYQDKNRPSGIPERFSGSNSGNTATLTISGTQAMDEADYYCATYTGFGSLAVFGGGTKLTVLGQPKAAPSVTLFPPSSEELQANKATLVCLISDFYPGAVTVAWKADSSPVKAGVETTTPSKQSNNKYAASSYLSLTPEQWKSHRSYSCQVTHEGSTVEKTVAPTECS
notes: copies: 2 + 2
On to B3, for which the Kd in test [2] worked out at 2 nM; in [4] it was 160 nM; in test [5] it was 68 nM; in test [6], 10 nM; in [7], 160 nM; in test [8], 250 nM. Besides, the koff in [2] amounted to 0.00091 s⁻¹; in test [4], 0.033 s⁻¹; in test [5] it was 0.057 s⁻¹; in [6], 0.0091 s⁻¹; in test [7], 0.099 s⁻¹; in test [8], 0.07 s⁻¹. Further, the kon in [2] turned out to be 440000 M⁻¹ s⁻¹; in test [4] it was 210000 M⁻¹ s⁻¹; in test [5] it was 840000 M⁻¹ s⁻¹; in test [6], 900000 M⁻¹ s⁻¹; in test [7] it was 620000 M⁻¹ s⁻¹; in test [8], 280000 M⁻¹ s⁻¹. Also, in test [3], the binding result is reported as “no binding (tested: 300 nM)”.
